Reference: patent US20160319032A1 (MEDLMMUNE, published 2016)
Like-named read-outs stand apart in the source and are kept apart here.

How the values were obtained:
[1] = target: human αV on parental A375M cells (αVβ3 and αVβ5 integrins) (human, UniProt P06756 31-1048); assay: cell-based or functional assay
[2] = target: T1, α5β1 integrin on K562 cells (UniProt P08648 42-1049; P05556 21-798); assay: cell-based or functional assay
[3] = target: T2, α4β1 integrin on J6.77 cells (UniProt P13612 34-1032; P05556 21-798); assay: cell-based or functional assay
cynomolgus αVβ6 on cells [4] = target: T3, cynomolgus αVβ6 on cells (cynomolgus); assay: FACS, supernatant, HEK-293 transfected with cynomolgus αV and β6
T3 construct: whole, on cells; also called macaque αVβ6; Mac AVB6

[5] = target: T4, human αVβ6 integrin on cells (human, UniProt P06756 31-1048; P18564 22-788); assay: cell-based or functional assay
[6] = target: T4, human αVβ6 integrin on cells; assay: FMAT, supernatant, HEK 293 cells stably overexpressing αVβ6
[7] = target: T4, human αVβ6 integrin on cells; assay: cell-based or functional assay; remark: listed apart in the source
[8] = target: T1, α5β1 integrin on K562 cells; assay: cell-based or functional assay; remark: listed apart in the source
[9] = target: T4, human αVβ6 integrin on cells; assay: cell-based or functional assay; remark: listed apart in the source
[10] = target: T4, human αVβ6 integrin on cells; assay: cell-based or functional assay; remark: listed apart in the source
[11] = target: T2, α4β1 integrin on J6.77 cells; assay: cell-based or functional assay; remark: listed apart in the source
[12] = target: T4, human αVβ6 integrin on cells; assay: cell-based or functional assay; remark: listed apart in the source
[13] = target: T5, cynomolgus αV on transfected HEK-293 cells (cynomolgus); assay: FACS, purified mAb, transfected HEK-293 (parental: 74)
T5 construct: whole, on cells; Transfected alone into human HEK-293 cells; also called Cynomolgus alphaV

cynomolgus αVβ6 on cells [14] = target: T3, cynomolgus αVβ6 on cells; assay: as above
[15] = target: T6, mouse αV on transfected HEK-293 cells (mouse, UniProt P43406 31-1044); assay: as above
T6 construct: whole, on cells; Transfected alone into human HEK-293 cells; also called Mouse alpha V

[16] = target: T6, mouse αV on transfected HEK-293 cells; assay: FACS, purified mAb, transfected HEK-293 (parental: 49)

T4 sequence (P06756 31-1048, chain 1 of 2): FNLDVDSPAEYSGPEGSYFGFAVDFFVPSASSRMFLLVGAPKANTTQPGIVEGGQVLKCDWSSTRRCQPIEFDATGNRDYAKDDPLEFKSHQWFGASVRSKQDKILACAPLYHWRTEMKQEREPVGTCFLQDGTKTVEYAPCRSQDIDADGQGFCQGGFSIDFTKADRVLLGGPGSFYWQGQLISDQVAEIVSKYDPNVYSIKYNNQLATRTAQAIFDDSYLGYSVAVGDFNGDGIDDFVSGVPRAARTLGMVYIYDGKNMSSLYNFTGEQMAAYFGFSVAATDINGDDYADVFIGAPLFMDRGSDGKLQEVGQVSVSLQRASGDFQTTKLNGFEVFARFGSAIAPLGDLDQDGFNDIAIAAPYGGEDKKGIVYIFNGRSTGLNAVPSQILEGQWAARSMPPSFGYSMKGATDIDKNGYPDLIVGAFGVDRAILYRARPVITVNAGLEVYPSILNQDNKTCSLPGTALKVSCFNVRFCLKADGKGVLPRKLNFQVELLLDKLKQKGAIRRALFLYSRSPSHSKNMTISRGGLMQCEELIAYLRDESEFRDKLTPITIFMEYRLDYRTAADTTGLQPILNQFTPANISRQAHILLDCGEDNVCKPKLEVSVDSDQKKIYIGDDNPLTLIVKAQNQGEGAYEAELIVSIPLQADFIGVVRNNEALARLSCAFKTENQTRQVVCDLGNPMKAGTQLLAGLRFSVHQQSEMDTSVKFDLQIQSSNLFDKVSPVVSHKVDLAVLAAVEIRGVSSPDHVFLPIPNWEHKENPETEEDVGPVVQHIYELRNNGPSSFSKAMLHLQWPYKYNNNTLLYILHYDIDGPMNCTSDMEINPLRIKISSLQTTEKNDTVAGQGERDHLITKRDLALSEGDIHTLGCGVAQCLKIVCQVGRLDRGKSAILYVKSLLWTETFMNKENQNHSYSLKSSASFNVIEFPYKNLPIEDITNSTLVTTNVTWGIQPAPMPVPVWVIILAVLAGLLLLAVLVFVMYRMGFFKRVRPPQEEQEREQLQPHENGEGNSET
T4 sequence (P18564 22-788, chain 2 of 2): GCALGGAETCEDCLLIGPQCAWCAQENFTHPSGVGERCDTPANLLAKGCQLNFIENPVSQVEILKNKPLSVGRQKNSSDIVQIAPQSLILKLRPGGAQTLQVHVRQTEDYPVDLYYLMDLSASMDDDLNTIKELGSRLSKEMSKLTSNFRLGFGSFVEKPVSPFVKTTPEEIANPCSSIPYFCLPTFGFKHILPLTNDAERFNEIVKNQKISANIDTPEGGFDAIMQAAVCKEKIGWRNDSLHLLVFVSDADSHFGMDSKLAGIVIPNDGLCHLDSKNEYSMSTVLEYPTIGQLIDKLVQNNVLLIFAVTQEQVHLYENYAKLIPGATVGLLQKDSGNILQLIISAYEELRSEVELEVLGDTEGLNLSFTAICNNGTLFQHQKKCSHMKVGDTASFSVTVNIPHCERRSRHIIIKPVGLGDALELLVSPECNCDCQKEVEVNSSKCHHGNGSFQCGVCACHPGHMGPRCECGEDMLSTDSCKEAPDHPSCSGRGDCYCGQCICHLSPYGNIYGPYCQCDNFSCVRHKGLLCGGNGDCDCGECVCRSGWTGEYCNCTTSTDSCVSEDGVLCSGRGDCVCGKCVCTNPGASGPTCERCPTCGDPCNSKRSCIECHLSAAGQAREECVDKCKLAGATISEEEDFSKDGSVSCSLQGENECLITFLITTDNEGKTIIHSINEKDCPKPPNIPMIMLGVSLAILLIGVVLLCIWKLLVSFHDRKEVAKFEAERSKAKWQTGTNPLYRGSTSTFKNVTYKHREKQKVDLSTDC
T1 sequence (P08648 42-1049, chain 1 of 2): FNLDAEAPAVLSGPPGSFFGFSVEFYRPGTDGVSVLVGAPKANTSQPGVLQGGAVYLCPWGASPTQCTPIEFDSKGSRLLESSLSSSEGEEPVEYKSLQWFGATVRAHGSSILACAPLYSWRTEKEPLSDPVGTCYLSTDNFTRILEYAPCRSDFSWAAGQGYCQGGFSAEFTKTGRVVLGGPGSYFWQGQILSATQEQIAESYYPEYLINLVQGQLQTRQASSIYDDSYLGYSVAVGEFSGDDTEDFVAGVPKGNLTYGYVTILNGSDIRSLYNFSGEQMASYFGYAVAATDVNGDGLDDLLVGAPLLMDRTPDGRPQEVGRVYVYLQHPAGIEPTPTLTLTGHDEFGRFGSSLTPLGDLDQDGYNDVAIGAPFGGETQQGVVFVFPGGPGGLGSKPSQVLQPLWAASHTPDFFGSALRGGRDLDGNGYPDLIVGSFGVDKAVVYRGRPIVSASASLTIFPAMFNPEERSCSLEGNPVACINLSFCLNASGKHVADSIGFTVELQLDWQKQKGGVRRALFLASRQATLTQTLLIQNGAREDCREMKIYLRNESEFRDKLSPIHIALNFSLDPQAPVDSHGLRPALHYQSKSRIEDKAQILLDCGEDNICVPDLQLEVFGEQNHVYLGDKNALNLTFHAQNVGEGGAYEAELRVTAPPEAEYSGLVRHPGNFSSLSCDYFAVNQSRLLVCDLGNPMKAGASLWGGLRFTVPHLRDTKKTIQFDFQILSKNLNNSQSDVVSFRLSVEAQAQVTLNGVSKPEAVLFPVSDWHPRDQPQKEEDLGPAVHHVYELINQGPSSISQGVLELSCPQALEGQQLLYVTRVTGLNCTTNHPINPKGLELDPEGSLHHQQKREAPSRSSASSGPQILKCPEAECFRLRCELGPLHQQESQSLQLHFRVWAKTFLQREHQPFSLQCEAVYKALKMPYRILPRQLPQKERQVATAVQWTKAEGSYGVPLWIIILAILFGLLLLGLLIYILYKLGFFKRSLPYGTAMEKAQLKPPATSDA
T1 sequence (P05556 21-798, chain 2 of 2): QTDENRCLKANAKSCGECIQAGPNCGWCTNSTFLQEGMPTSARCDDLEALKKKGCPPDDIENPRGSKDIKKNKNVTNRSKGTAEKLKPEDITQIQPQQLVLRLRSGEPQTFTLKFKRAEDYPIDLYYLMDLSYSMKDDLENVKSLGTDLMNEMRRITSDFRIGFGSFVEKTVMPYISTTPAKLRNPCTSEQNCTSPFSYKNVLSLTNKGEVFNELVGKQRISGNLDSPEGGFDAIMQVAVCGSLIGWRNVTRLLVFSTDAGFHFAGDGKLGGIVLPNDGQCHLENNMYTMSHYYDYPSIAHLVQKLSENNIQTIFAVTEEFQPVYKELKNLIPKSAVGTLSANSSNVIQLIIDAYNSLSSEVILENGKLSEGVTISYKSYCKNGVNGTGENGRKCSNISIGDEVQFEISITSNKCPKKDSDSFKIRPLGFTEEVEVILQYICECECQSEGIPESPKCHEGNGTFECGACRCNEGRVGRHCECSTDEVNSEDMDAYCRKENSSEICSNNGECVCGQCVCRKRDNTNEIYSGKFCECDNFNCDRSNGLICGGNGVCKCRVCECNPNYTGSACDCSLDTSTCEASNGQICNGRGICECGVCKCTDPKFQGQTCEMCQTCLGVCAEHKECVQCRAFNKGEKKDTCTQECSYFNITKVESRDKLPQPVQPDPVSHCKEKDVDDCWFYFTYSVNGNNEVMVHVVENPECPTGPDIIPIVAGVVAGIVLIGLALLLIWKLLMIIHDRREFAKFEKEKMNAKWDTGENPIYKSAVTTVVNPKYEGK
human αV on parental A375M cells (αVβ3 and αVβ5 integrins), sequence (P06756 31-1048 A375M, form in doubt): as the sequence (P06756 31-1048, chain 1 of 2) above, with A345M counted along it
T6 sequence (P43406 31-1044): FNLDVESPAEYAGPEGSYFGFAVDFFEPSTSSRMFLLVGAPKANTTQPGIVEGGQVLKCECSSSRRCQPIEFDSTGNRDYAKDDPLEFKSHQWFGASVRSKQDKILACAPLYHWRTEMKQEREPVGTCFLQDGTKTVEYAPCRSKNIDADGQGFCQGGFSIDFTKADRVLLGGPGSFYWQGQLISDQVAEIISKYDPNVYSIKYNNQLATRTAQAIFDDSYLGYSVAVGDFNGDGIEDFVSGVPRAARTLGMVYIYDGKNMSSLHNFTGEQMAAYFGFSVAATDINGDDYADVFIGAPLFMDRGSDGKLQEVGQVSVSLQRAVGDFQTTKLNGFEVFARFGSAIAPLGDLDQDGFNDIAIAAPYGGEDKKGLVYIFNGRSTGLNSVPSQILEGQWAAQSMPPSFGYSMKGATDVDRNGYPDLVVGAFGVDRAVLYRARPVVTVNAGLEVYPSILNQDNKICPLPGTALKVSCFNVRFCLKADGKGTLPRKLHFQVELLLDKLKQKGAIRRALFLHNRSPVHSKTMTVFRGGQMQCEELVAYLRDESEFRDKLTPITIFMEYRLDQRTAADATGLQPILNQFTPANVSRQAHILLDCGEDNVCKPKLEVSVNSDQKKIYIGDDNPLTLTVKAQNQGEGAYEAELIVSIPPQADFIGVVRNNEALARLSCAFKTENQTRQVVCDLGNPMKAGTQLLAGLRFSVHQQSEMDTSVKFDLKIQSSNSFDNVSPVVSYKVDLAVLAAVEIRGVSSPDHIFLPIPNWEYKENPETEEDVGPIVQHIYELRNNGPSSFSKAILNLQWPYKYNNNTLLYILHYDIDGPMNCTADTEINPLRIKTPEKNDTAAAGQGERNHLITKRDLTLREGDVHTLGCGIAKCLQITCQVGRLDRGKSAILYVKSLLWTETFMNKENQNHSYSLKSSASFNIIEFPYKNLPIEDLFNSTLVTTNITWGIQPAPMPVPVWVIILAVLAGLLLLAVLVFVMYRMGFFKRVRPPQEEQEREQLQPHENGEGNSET

| Percent Inhibition of A375M adhesion to osteopontin peptide, 5 ug/ml [1] [%] | Percent Inhibition of K562 adhesion to FN9-10, 5 ug/ml [2] [%] | Percent Inhibition of J6.77 adhesion to CS-1 peptide, 5 ug/ml [3] [%] | Estimated IC50, adhesion assay, n = 1 [5] [µg/mL] | Estimated IC50, adhesion assay, n = 2 [5] [µg/mL] | FMAT FL1XCount [6] | Assay 1 % Inhibition of adhesion [7] [%] | Assay 2 % Inhibition of adhesion [7] [%] | Average % Inhibition of adhesion [7] [%] | % Inhibition of K562 adhesion to fibronectin [8] [%] | IC50, adhesion of HT29 cells, n = 1 [9] [µg/mL] | IC50, adhesion of HT29 cells, n = 2 [9] [µg/mL] | IC50, adhesion of HT29 cells, n = 3 [9] [µg/mL] | Percent Internalization, 1 ug/mL [10] [%] | Percent Internalization, 10 ug/mL [10] [%] | Percent Inhibition of J6.77 adhesion to CS-1 peptide, 5 ug/ml [11] [%] | Percent Internalization, 1 ug/ml [12] [%] | Percent Internalization, 10 ug/ml [12] [%] | further results | Binder |
| --- | --- | --- | --- | --- | --- | --- | --- | --- | --- | --- | --- | --- | --- | --- | --- | --- | --- | --- | --- |
| 3 | -12 | -15 | – | – | – | – | – | – | – | – | – | – | – | – | – | – | – | % Cells Shifted (cynomolgus αVβ6 on cells [4]): 32%; GeoMean (cynomolgus αVβ6 on cells [4]): 35.2 | sc 133 (antibody, V domains shown, lambda light chain; also called mAb sc 133) VH: QVQLVQSGAEVKKPGASVKVSCKASGYTFTGYYMHWVRQAPGQGLEWMGWINPKSGDTNYAQKFQGRVTLTRDTSTSTAYMELSRLRSDDTAVYYCARRLDVWGQGTTVTVSS VL: QSVLTQPPSVSAAPGQKVTISCSGSSSNIGNNYVSWYQQLPGTAPKLLIYDNNKRPSGIPDRFSGSKSGTSATLGITGLQTGDEADYYCGTWNSSLSAGYVFGTGTKVTV |
| – | 5 | -10 | 0.041 | 0.026 | 79800 | 99 | 103 | 101 | -5 | 0.125 | 0.157 | 0.064 | 34 | 38 | 2 | 27 | 18 | – | sc 188 (antibody, V domains shown, kappa light chain) VH: QVQLQESGPGLVKPSQTLSLTCTVSGGSISSGVYYWTWIRQHPGNGLEWIGYIYYSGSTSYNPSLKSRVTISVDTSKKQFSLNLTSVTAADTAVYYCAREGPLRGDYYYGLDVWGQGTTVTVSS VL: EIVLTQSPGTLSLSPGERATLSCRAGQTISSRYLAWYQQKPGQAPRPLIYGASSRATGIPDRFSGSGSGTDFTLTISRLEPEDFAVYYCQQYGSSPRTFGQGTKVEIK |
| – | – | – | – | – | – | – | – | – | -8 | 0.022 | 0.024 | 0.067 | – | – | -6 | 17 | 22 | – | sc 188 SDM (antibody, V domains shown) VH: QVQLQESGPGLVKPSQTLSLTCTVSGGSISSGVYYWTWIRQHPGNGLEWIGYIYYSGSTSYNPSLKSRVTISVDTSKKQFSLKLTSVTAADTAVYYCAREGPLRGDYYYGLDVWGQGTTVTVSS VL: EIVLTQSPGTLSLSPGERATLSCRAGQTISSRYLAWYQQKPGQAPRPLIYGASSRATGIPDRFSGSGSGTDFTLTISRLEPEDFAVYYCQQYGSSPRTFGQGTKVEIK |
| – | -9 | 0 | 0.063 | 0.037 | 1.6e+06 | 98 | 106 | 102 | – | – | – | – | 39 | 49 | – | – | – | Estimated IC50, adhesion assay, n = 3 [5]: 0.037 µg/mL | sc 254 (antibody, V domains shown, kappa light chain) VH: QVQLQESGPGLVKPSQTLSLTCTVSGGSISSGGYYWSWIRQHPGKGLEWIGYIYYSGSTYYNPSLKSRVTISVDTSKNQFSLKLSSVTAADTAMYYCARYRGPAAGRGDFYYFGMDVWGQGTTVTVSS VL: DIVMTQTPLSLSVTPGQPASIFCKSSQSLLNSDGKTYLCWYLQKPGQPPQLLIYEVSNRFSGVPDRFSGSGSGTDFTLKISRVEAEDVGVYYCMQGIQLPWAFFGQGTKVEIK |
| 3 | -4 | -8 | – | – | – | – | – | – | 3 | – | – | – | – | – | -30 | – | – | % Cells Shifted (cynomolgus αVβ6 on cells [4]): 55%; GeoMean (cynomolgus αVβ6 on cells [4]): 66.4; percent of cells shifted [13]: 70%; percent of cells shifted (cynomolgus αVβ6 on cells [14]): 54%; percent of cells shifted [15]: 71% | sc 264 (antibody, V domains shown, lambda light chain) VH: QVQLQESGPGLVKPSQTLSLTCTVSGGSISSGGYYWSWIRQHPGKGLEWIGYIYYSGRTYNNPSLKSRVTISVDTSKNQFSLKLSSVTAADTAVYYCARVATGRGDYHFYAMDVWGQGTTVTVSS VL: SYELTQPSSVSVSPGQTARITCSGDVLAKKSARWFHQKPGQAPVLVIYKDSERPSGIPERFSGSSSGTTVTLTISGAQVEDEAAYYCYSAADNNLVFGGGTKLTVL |
| – | – | – | – | – | – | – | – | – | 6 | 0.013 | 0.013 | 0.039 | – | – | -2 | 31 | 42 | – | sc 264 RAD (antibody, V domains shown) VH: QVQLQESGPGLVKPSQTLSLTCTVSGGSISSGGYYWSWIRQHPGKGLEWIGYIYYSGRTYNNPSLKSRVTISVDTSKNQFSLKLSSVTAADTAVYYCARVATGRADYHFYAMDVWGQGTTVTVSS VL: SYELTQPSSVSVSPGQTARITCSGDVLAKKSARWFHQKPGQAPVLVIYKDSERPSGIPERFSGSSSGTTVTLTISGAQVEDEAAYYCYSAADNNLVFGGGTKLTVL |
| 9 | 2 | -7 | 0.029 | 0.025 | 218000 | 98 | 102 | 100 | – | – | – | – | 26 | 28 | – | – | – | Estimated IC50, adhesion assay, n = 3 [5]: 0.033 µg/mL; percent of cells shifted [16]: 45% | sc 298 (antibody, V domains shown, lambda light chain) VH: QVQLVESGGGVVQPGRSLRLSCAASGFTFSSYGMHWVRQAPGKGLEWVAVIWYGGSNKYYADSVKGRFTISRDNSKNTLYLQMNSLRAEDTAVYYCARDLAARRGDYYYYGMDVWGQGTTVTVSS VL: SSELTQDPVVSVALGQTVRITCQGDSLRSYYLSWYQQKPGQAPVLVIYGKNNRPSGIPDRFSGSNSGNTASLTITGAQAEDEADYYCNSRDSSGNHLFGGGTKLTVL |
